In the supplement of paper PMC9170038:

System: MS2 coat protein
Experiment: apparent KD of MS2 coat protein; designed switch direction (-1 OFF switch, 1 ON switch): -1; higher = weaker reporter binding
How it was run: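 Normalised cluster fluorescence was curve-fitted, and each design's median over clusters is its apparent KD. Before this, SNAP-549-labelled MS2 coat protein was titrated from 0.7 or 1.5 nM, doubling to 3 µM, over RNA switches transcribed on Illumina chips by stalled E. coli RNA polymerase. Titrations had no input, 200 uM small-molecule ligand, or an oligonucleotide input, and steps lasted 0.8–1.5 h (lowest) to 10–20 min (highest).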

[1] = input ligand: microRNA oligo, concentration not stated
[2] = Eterna round: R95, input ligand: FMN 200 uM
[3] = Eterna round: R95, input ligand: microRNA oligo, concentration not stated
[4] = Eterna round: R95, input ligand: none

| Sequence | apparent KD of MS2 coat protein (input ligand: FMN 200 uM) | apparent KD of MS2 coat protein [1] | apparent KD of MS2 coat protein (input ligand: none) | apparent KD of MS2 coat protein [2] | apparent KD of MS2 coat protein [3] | apparent KD of MS2 coat protein [4] |
| --- | --- | --- | --- | --- | --- | --- |
| UAUCGGGACUGAGGAUAUUCGUUCGAGCACGAAGAAGAAGGUAGUGUCAGGGACAUGAGGAUCACCCAUGUGAUCUCAGUCUUA [JL ViennaUCT Erinle mod 8] (Eterna round: R96, puzzle: Exclusion NG 1) | 127 nM | 86.7 nM | 98.9 nM |  |  |  |
| AGGAUGUUAGGAUAUCGGAGAUGCUGGAGGAGGUGGAUUUACGAGAAGGAACAUGAGGAUCACCCAUGUGGAAG [JR_Exclu4_Sub046] (puzzle: Exclusion 4) |  |  |  | 35.1 nM | 25.8 nM | 27.2 nM |
| CAAGAUUACUGAGGAUAUCCUAGUUUAUUUCAGGGAGAAGGCGGACUCAACAUGAGGAUCACCCAUGUAAGACGGGUACUAGAG [Ex NG1 #16] (Eterna round: R96, puzzle: Exclusion NG 1) | 94.7 nM | 71.1 nM | 78.4 nM |  |  |  |
| AGCUGUGGCCGAGGAUAUCUAAACCUCGAAAACGAAAUAUAAUCGAACAUGAGGAUCACCCAUGUAGAGAAGGCGGUCUCAGCA [Eli eng2 - 033] (Eterna round: R96, puzzle: Exclusion NG 2) |  | 51 nM |  |  |  |  |
| GUUAUGCGGCAGGAUAUCCAUCCGCGGUAUGAUGGAGAAGGGCCGACAUGAGGAUCACCCAUGUGCGUCCUAGG [jl-ex6-4.49 ViennaUCT mod] (Eterna round: R97, puzzle: Exclusion 6) | 155 nM |  | 53 nM |  |  |  |
| UAUUUAAGAGGAUAUACAUGAGGAUCACCCAUGUAAAAUAAAAUAGAUAAUUUUUUAUGUAGAAGGCUUGGGUA [-12.7, -11.42 kcal, A 39%] (Eterna round: R97, puzzle: Exclusion 3) | 38.5 nM |  | 40 nM |  |  |  |
| UCCUGGUCAGGAUAUUGCAGGUCGUACGCUCUGAGUCUAGGCAAGAAGGGACAUGAGGAUCACCCAUGUGGGCG [Eternabot (L1) Solution 4] (Eterna round: R97, puzzle: Exclusion 4) | 406 nM |  | 187 nM |  |  |  |
| AACCAGCGAGGAUAUUGUUGGUAAAACAUGAGGAUCACCCAUGUCACGUGAUCUUCCCAACAAGAAGGUGCACUAA [Isrierin] (Eterna round: R97, puzzle: Exclusion 5) | 183 nM |  | 46.7 nM |  |  |  |
| AGCUGUGGCCGAGGAUAUCAAGACCGAUGGAAAACCAUCGGAACUCAACAUGAGGAUCACCCAUGUGAGAAGGCGGUCUCAGCA [Eli eng2 - 027] (Eterna round: R96, puzzle: Exclusion NG 2) | 10.9 nM | 7.82 nM | 10.9 nM |  |  |  |
| UGAUCUAGCGGAGGAUAUACAUGAGGAUCACCCAUGUAUAGUCUAUGACCGUAGUCGUGGACCGUGUAGAAGGCCGCUAGAUCU [JL ENG2 3.77] (Eterna round: R96, puzzle: Exclusion NG 2) | 16.5 nM | 11.4 nM | 11 nM |  |  |  |
| CCAAAUUCAGGAUAUACGAUGGUGAGUUCGUCCUCAAGGCCACAUGAGGAUCACCCAUGUAGAAGGGAGGUCGG [Eternabot (L1) Solution 77] (Eterna round: R97, puzzle: Exclusion 2) | 130 nM |  | 35.6 nM |  |  |  |
| AGGCGGACAUCUAAUACUCACAUGAGGAUCACCCAUGUUUGACCAAAUAUACAGGCCGGUUUGCUUAGUCUUACUUG [Eternabot (L2) Solution 43] (Eterna round: R97, puzzle: Sensor, turn-off variant 1) | 40.8 nM |  | 49.2 nM |  |  |  |
| UUUAUGUCAGGAUAUACAUGAGGAUCACCCAUGUAUAUCUUAAGGUAUACAUGGGAAUGUAGAAGGGACCUCCU [Omei Ex3 Pseudoloop 7] (Eterna round: R97, puzzle: Exclusion 3) | 40.7 nM |  | 41.3 nM |  |  |  |
| AAGGGUGCUUUCGGAACGACAUGAGGAUCACCCAUGUAGACUGAGGAUAUCUACUUCUAAGGACGGGAGAAGGCAGUGUAAUGC [Ex NG3 #69] (Eterna round: R96, puzzle: Exclusion NG 3) | 47.8 nM | 28.3 nM | 42.6 nM |  |  |  |
| AGAAAUGCCCAUGGCAACAAGCUUUUUGCUUGUCUUACCACAUGAGGAUCACCCAUGUGACAUGGGCUCCUGAUAAU [Ladidier] (puzzle: Sensor v3, turn-off variant 2) |  |  |  | 12.4 nM | 10.6 nM | 12.2 nM |
| UUUUUCAGGCCAGAUCCUCACAUGAGGAUCACCCAUGUGCUCGUCUGUUUUCGCACUAUCUUUUUUUUGUUAGUGCU [Level Boss var2-14] (puzzle: Sensor v3, turn-off variant 1) |  |  |  | 287 nM | 22.7 nM | 322 nM |
| CAGUACUGAGGAUAUACAUGAGGAUCACCCAUGUGUUCCAGCUAGGAAAGUAGCAAAAGUAGAAGGCAGUACUG [salish99_ex3_r3_072] (puzzle: Exclusion 3) |  |  |  | 291 nM | 26.7 nM | 21.6 nM |

| Sequence | apparent KD of MS2 coat protein (input ligand: FMN 200 uM) | apparent KD of MS2 coat protein [1] | apparent KD of MS2 coat protein (input ligand: none) | apparent KD of MS2 coat protein [2] | apparent KD of MS2 coat protein [3] | apparent KD of MS2 coat protein [4] |
| --- | --- | --- | --- | --- | --- | --- |
| UUUAAUUUUUUUUUUUUACAAGCUUUUUGCUCGUCUUAUACAUGAGGAUCACCCAUGUAAAUGGGAAAUGAAUUAUC [JMF 95] (puzzle: Sensor v3, turn-off variant 2) |  |  |  | 322 nM | 447 nM | 188 nM |
| AAAAGAACAGGAUAUUCGUGAAAUAACAUGAGGAUCACCCAUGUUAACGCGGGUGAGAACGAAGAAGGGUUCUAAA [Ceries] (puzzle: Exclusion 5) |  |  |  | 121 nM | 42.1 nM | 61.4 nM |
| ACAAGAAUUUUGCUCGUAAAGUAGGAACGCGAGAGCGGGACAUGAGGAUCACCCAUGUAGAGGCAGUUGGUGGAGAU [JR_SV3TOV2_Sub029] (puzzle: Sensor v3, turn-off variant 2) |  |  |  | 42.2 nM | 56 nM | 43.4 nM |
| CUUUACAUGCUGAGAUCCUACAUGAGGAUCACCCAUGUGGUCCGGUGACGUGAGUCACCGGACUUAGCUCGUCUUGU [salish99_S_TOV1_R5_098] (Eterna round: R97, puzzle: Sensor, turn-off variant 1) | 169 nM |  | 336 nM |  |  |  |
| GUGGGCUUUUAGGUUCUUAACAUGAGGAUCACCCAUGUGCUUGUCUUGCUGGCUGGCGGGUCGUCGGUCGGGCUUGU (Eterna round: R97, puzzle: Sensor, turn-off variant 1) | 489 nM |  | 584 nM |  |  |  |
| UUUUAGCAAGCUAUUAUUAACAUGAGGAUCACCCAUGUGCAUCCAAAAUUACUUUUAGAUCUUGCUCGUCUUAUAUA [JR_STOV1_v2_Sub084] (Eterna round: R97, puzzle: Sensor, turn-off variant 1) | 1260 nM |  | 1600 nM |  |  |  |
| AAACAGGAUGUAAGGAUAUCCAAGUGCUAAGCACGGGAGAAGGUACAUGAGGAUCACCCAUGUGGUCUUCCAAU [Quesardi] (Eterna round: R97, puzzle: Brourd's mod of Exclusion 4) | 253 nM |  | 120 nM |  |  |  |
| GUGCAACAUGAGGAUCACCCAUGUCAGGAUAUGCGAAUUUCAUCAAAAGAUGAAAUUUGCAGAAGGGACAGCAC [Omei Ex1 A16] (Eterna round: R97, puzzle: Exclusion 1) | 32 nM |  | 24.4 nM |  |  |  |
| GAGAAGGUAGGAUAUACGAAGAAAGAGGGUAGGAAUAAUACACAUGAGGAUCACCCAUGUAGAAGGACCAAGAG [Mat - Exclusion 2 - Mod of my Tesla design - D46] (puzzle: Exclusion 2) |  |  |  | 38.7 nM | 21.4 nM | 24.2 nM |
| UCUUAGUCAGGAUAUACAUGAGGAUCACCCAUGUAAAAUUUUAAUUUAAUUUUAAGGUGUAGAAGGGACCACCC [Ex3 #17] (Eterna round: R97, puzzle: Exclusion 3) | 33.2 nM |  | 37.5 nM |  |  |  |
| AGUACUUUCACGAAAGUGAAAGUACAAUAAGCUUGUGGAACAUGAGGAUCACCCAUGUCCUCAUAAGCUCGUCUUAU [Mat - Sensor v3 - Turn-off var 2 - D32] (puzzle: Sensor v3, turn-off variant 2) |  |  |  | 17.3 nM | 72.5 nM | 15.5 nM |
| AUUUUAUAUGAAGGAUAUACUUAACAUGAGGAUCACCCAUGUGGUGUUGUGAGUGAGUGAGUUUAGUAGAAGGUCAAUUCUUUU [JMF's solution 98] (Eterna round: R96, puzzle: Exclusion NG 2) | 240 nM | 185 nM | 288 nM |  |  |  |
| UUUAGUUCAGGAUAUGAUGAAUUAAACAUGAGGAUCACCCAUGUAGAUCCUGAAUUAACAUCAGAAGGGAACAUUU [JL-ex5-4.48 Brourd mod] (Eterna round: R97, puzzle: Exclusion 5) | 41.8 nM |  | 15 nM |  |  |  |
| GAGAAGGUAGGAUAUACGAAAAAAAAGGGUAGAAAAAAAACACAUGAGGAUCACCCAUGUAGAAGGACCAAAAG [salish99_ex2_r3_035] (puzzle: Exclusion 2) |  |  |  | 68.9 nM | 24.6 nM | 28 nM |
| UUUUAAUAUGAAGGAUAUACUUAACAUGAGGAUCACCCAUGUGGUGUUGUGAGUGAGUGAGUUUAGUAGAAGGUCAAGUAUUUU [JMF's solution 47] (Eterna round: R96, puzzle: Exclusion NG 2) | 703 nM | 559 nM | 428 nM |  |  |  |
| CUCUUAUCUUAGGAUAUUUUACCGCAAGUGGUGGGAGAAGGGAGCACAUGAGGAUCACCCAUGUUAGCUGGGCU [Eternabot (L2) Solution 19] (Eterna round: R97, puzzle: Exclusion 6) | 22.1 nM |  | 20.5 nM |  |  |  |
